± gives the standard deviation of the averaged measurements.
Assay: total protein half-life in vivo (active degradation + dilution); higher = more stable protein
[1] = E. coli NCM3722 delta-clpP delta-lon delta-hslV, growth: N-lim chemostat, doubling time 6 h
[2] = E. coli NCM3722 delta-clpP, growth: N-lim chemostat, doubling time 6 h
[3] = E. coli NCM3722 delta-hslV, growth: N-lim chemostat, doubling time 6 h
[4] = E. coli NCM3722 delta-smpB, growth: N-lim chemostat, doubling time 6 h
[5] = wild type E. coli NCM3722, growth: C-lim chemostat, doubling time 3 h
[6] = wild type E. coli NCM3722, growth: C-lim chemostat, doubling time 6 h
[7] = wild type E. coli NCM3722, growth: C-lim chemostat, doubling time 12 h
[8] = wild type E. coli NCM3722, growth: N-lim chemostat, doubling time 6 h
[9] = wild type E. coli NCM3722, growth: N-lim chemostat, doubling time 12 h
[10] = wild type E. coli NCM3722, growth: P-lim chemostat, doubling time 6 h
[11] = wild type E. coli NCM3722, growth: P-lim chemostat, doubling time 12 h
[12] = E. coli NCM3722 delta-lon, growth: N-lim chemostat, doubling time 6 h

Row | Sequence | total protein half-life in vivo [1] [h] | total protein half-life in vivo [2] [h] | total protein half-life in vivo [3] [h] | total protein half-life in vivo [4] [h] | total protein half-life in vivo [5] [h] | total protein half-life in vivo [6] [h] | total protein half-life in vivo [7] [h] | total protein half-life in vivo [8] [h] | total protein half-life in vivo [9] [h] | total protein half-life in vivo [10] [h] | total protein half-life in vivo [11] [h] | total protein half-life in vivo [12] [h]
1 | MSLTELTGNPRHDQLLMLIAERGYMNIDELANLLDVSTQTVRRDIRKLSEQGLITRHHGGAGRASSVVNTAFEQREVSQTEEKKAIAEAVADYIPDGSTIFITIGTTVEHVARALLNHNHLRIITNSLRVAHILYHNPRFEVMVPGGTLRSHNSGIIGPSAASFVADFRADYLVTSVGAIESDGALMEFDVNEANVVKTMMAHARNILLVADHTKYHASAAVEIGNVAQVTALFTDELPPAALKSRLQDSQIEIILPQEDA | 5.99 ± 0.15 | 4.97 ± 0.17 | 5.17 ± 0.35 | 4.98 ± 0.86 | 2.8 ± 0.12 | 5.113 ± 0.0071 | 10.7 ± 0.88 | 4.89 ± 1 | 8.59 | 4.9 ± 0.25 | 8.679 ± 0.03 | –
2 | MSLTLTLTGTGGAQGVPAWGCECAACARARRSPQYRRQPCSGVVKFNDAITLIDAGLHDLADRWSPGSFQQFLLTHYHMDHVQGLFPLRWGVGDPIPVYGPPDEQGCDDLFKHPGLLDFSHTVEPFVVFDLQGLQVTPLPLNHSKLTFGYLLETAHSRVAWLSDTAGLPEKTLKFLRNNQPQVMVMDCSHPPRADAPRNHCDLNTVLALNQVIRSPRVILTHISHQFDAWLMENALPSGFEVGFDGMEIGVA | 6.78 | 4.09 ± 0.048 | 4.36 ± 0.11 | 4.8 | 2.37 | 4.07 | 9.33 ± 0.34 | 4.3 | 7.1 | 4.41 | 8.54 ± 2.5 | 4.56 ± 0.17
3 | MSNFINIHVLISHSPSCLNRDDMNMQKDAIFGGKRRVRISSQSLKRAMRKSGYYAQNIGESSLRTIHLAQLRDVLRQKLGERFDQKIIDKTLALLSGKSVDEAEKISADAVTPWVVGEIAWFCEQVAKAEADNLDDKKLLKVLKEDIAAIRVNLQQGVDIALSGRMATSGMMTELGKVDGAMSIAHAITTHQVDSDIDWFTAVDDLQEQGSAHLGTQEFSSGVFYRYANINLAQLQENLGGASREQALEIATHVVHMLATEVPGAKQRTYAAFNPADMVMVNFSDMPLSMANAFEKAVKAKDGFLQPSIQAFNQYWDRVANGYGLNGAAAQFSLSDVDPITAQVKQMPTLEQLKSWVRNNGEA | 6.17 ± 0.55 | 2.77 | – | – | 2.13 | 4.22 | – | – | – | 5.28 | 11.4 ± 1.2 | 2.71
4 | MSNKNVNVRKSQEITFCLLAGILMFMAMMVAGRAEAGVALGATRVIYPAGQKQEQLAVTNNDENSTYLIQSWVENADGVKDGRFIVTPPLFAMKGKKENTLRILDATNNQLPQDRESLFWMNVKAIPSMDKSKLTENTLQLAIISRIKLYYRPAKLALPPDQAAEKLRFRRSANSLTLINPTPYYLTVTELNAGTRVLENALVPPMGESTVKLPSDAGSNITYRTINDYGALTPKMTGVME | 4.77 | – | – | 5.38 ± 0.18 | – | 5.55 ± 0.66 | > 16 | 7.84 | 14.8 | 5.67 | 13.2 ± 3 | –
5 | MSNKPFHYQAPFPLKKDDTEYYLLTSEHVSVSEFEGQEILKVAPEALTLLARQAFHDASFMLRPAHQQQVADILRDPEASENDKYVALQFLRNSDIAAKGVLPTCQDTGTAIIVGKKGQRVWTGGGDEAALARGVYNTYIEDNLRYSQNAPLDMYKEVNTGTNLPAQIDLYAVDGDEYKFLCIAKGGGSANKTYLYQETKALLTPGKLKNYLVEKMRTLGTAACPPYHIAFVIGGTSAETNLKTVKLASAKYYDELPTEGNEHGQAFRDVELEKELLIEAQNLGLGAQFGGKYFAHDIRVIRLPRHGASCPVGMGVSCSADRNIKAKINRQGIWIEKLEHNPGKYIPEELRKAGEGEAVRVDLNRPMKEILAQLSQYPVSTRLSLNGTIIVGRDIAHAKLKERMDNGEGLPQYIKDHPIYYAGPAKTPEGYASGSLGPTTAGRMDSYVDQLQAQGGSMIMLAKGNRSQQVTDACKKHGGFYLGSIGGPAAVLAQGSIKSLECVEYPELGMEAIWKIEVEDFPAFILVDDKGNDFFQQIQLTQCTRCVK [P0AC33] | 4.02 ± 1.1 | 2.82 ± 0.17 | 2.53 ± 0.47 | 2.36 ± 0.071 | 3.13 ± 0.2 | 4.39 ± 0.14 | 7.67 ± 1.4 | 2.51 ± 0.22 | 3.37 ± 0.11 | 5.02 ± 0.12 | 8.932 ± 0.051 | 2.86 ± 0.043
6 | MSNNALQTIINARLPGEEGLWQIHLQDGKISAIDAQSGVMPITENSLDAEQGLVIPPFVEPHIHLDTTQTAGQPNWNQSGTLFEGIERWAERKALLTHDDVKQRAWQTLKWQIANGIQHVRTHVDVSDATLTALKAMLEVKQEVAPWIDLQIVAFPQEGILSYPNGEALLEEALRLGADVVGAIPHFEFTREYGVESLHKTFALAQKYDRLIDVHCDEIDDEQSRFVETVAALAHHEGMGARVTASHTTAMHSYNGAYTSRLFRLLKMSGINFVANPLVNIHLQGRFDTYPKRRGITRVKEMLESGINVCFGHDDVFDPWYPLGTANMLQVLHMGLHVCQLMGYGQINDGLNLITHHSARTLNLQDYGIAAGNSANLIILPAENGFDALRRQVPVRYSVRGGKVIASTQPAQTTVYLEQPEAIDYKR | 6.27 ± 0.14 | 5.838 ± 0.02 | 5.57 ± 0.45 | 5.64 ± 0.32 | 2.9 ± 0.17 | 5.8 ± 0.1 | 14.3 ± 0.34 | 5.43 ± 0.29 | 12.3 ± 1.4 | – | 12.7 ± 0.35 | 6.13 ± 0.073

From the supplement of paper PMC11246515
